Results taken from the RNAGym collection of RNA variant scans (doi:10.1073/pnas.2313332121).

B1: TPR t1 (parent)
chain: GACCAAUCUGCCCUCAGAGCUCGAGAACAUCUUCGGAUGCAGAGGAGGCAGGCUUCGGUGGCGCGAUAGCGCCAACGUCCUCAACCUCCAAUGCAUCCCACCACAUGAUGAUGCCUGAAGAGCCUUGGUUUUUUG

Variants of: B1
Assay: polymerase ribozyme fitness, log enrichment relative to wild type (log ratio); higher = more active; in vitro selection for triplet polymerase activity
Procedure, shortened: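 Streptavidin-bead capture of gel-excised extended constructs, followed by RT-PCR, closed a single triplicate in vitro selection round. That round began by annealing PCR-built, transcribed mutant libraries of each subunit of a heterodimeric triplet polymerase ribozyme with a biotinylated primer, the partner subunit and triplets, then incubating them frozen at −7 °C. After Illumina sequencing of inputs and outputs, genotypes needed ≥10 input reads and ≥1 read per output. Fitness is the base-2 logarithm of genotype enrichment over wild-type enrichment, using inverse-variance-weighted replicate averages.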

Variant	polymerase ribozyme fitness (log ratio)
U7C G135C	-0.63
U7C U14C A29G G71C G113U	-4.94
U7A G39A G52A	0.0728
U7C C11G A16G G52U U59G C72U	-0.58
A6U U7C C70A C76G	-2.57
A6G C79U C88G C104U	-1.13
U7C A66U U106C	-1.58
U7C C31A A119G U133A	-6.12
A6U U7C A41G G110A	-1.88
A6U A27U G63A A121G U130A	-2.41
U7C G42U G69C	-2.97
A6G A90G U112A	1.69
U7A C73A C88G A111U U129G	-6.86
U7A U106A	0.182
A6U G60A C82G C101U G120A G128U	-2.36
U7A C20U G120U	-0.3
U7A G25A G42U A50U G61A C85G A90C C123U U133G	-8.16
A6G C88U G113U	-2.37
A6U U78G A83C	-0.41
U7A U33A A100G G120C G135A	-3.75
A6C G61C U92C	-4.76
U7A U9C C12U G57C	0.0479
A6C U30C G69A	-5.82
A6C U38A C53G	-0.826

Variant	polymerase ribozyme fitness (log ratio)
U7C A18U C53U G60U G61U	-4.77
U7G C20U G60C U133G	-1.91
U7C C62A C99G U112G U132C U134A G135U	-7.59
U7G A46C A68C C70U C97U G120U G127U	-5.43
U7G A46G C124A	1.74
A6G G45A C72U U109G G120U	-5.05
U7C C70U	-1.31
A6U C8G G44U C49A G77U G120C U130G	-2.14
A6C U21A A37G A90G G120U G127U	-0.919
U7C G45U G110C	-5.16
A6U A29G G44A C82A	-2.51
U7C C49U A50C G60U G127A	-0.326
A6C U133A	-0.897
A6U C34G U87A G120A	-3.94
A6C U9G G57U G113U G128U	-3.88
A6G C64U C73U G117C	-2.37
A6U U55C C76U	-0.164
A6U G10C C12U C49A G69C A90C A91U	-2.98
A6G A111U	-2.51
A6U G19U A121U	-1.67
A6U G45U G52C C72U G122A	-2.56
U7A U21C	0.0698
U7A C8U G107C C124U	-4.43
U7G C11U C49A C56A G107U C114U	-4.37

Variant	polymerase ribozyme fitness (log ratio)
U7C G69A	-2.74
A6G C12G A46U A50U C56U C73A	-2.15
A6U G45A G52A A75U	-0.0939
U7A G48C C85U G120C	-0.382
A6U G69A C124A	-1.22
U7G C8A	0.287
A6C G52A C79U U87A	-0.58
A6U C8A	0.618
A6U G69U	0.777
A6U G36A	-0.596
A6G G44C C49G	-1.68
U7C C62U	-1.11
A6G G44C U112C	0.311
A6U A43U G63C G113U	-3.4
A6U A26U C70A G120U	-5.12
U7A G61C A91C C114A C115G	-7.29
A6C U9G G69U A83G A91C G117U	-0.828
A6U C12G C72U U78C	-0.414
U7C U87C U92G G122A C123U	-1.22
U7C C13G C72A	-0.177
A6G C22U A43C G45U C94A C124A	-5.87
A6U G63U U78C C97U G120C	-3.08
U7A A27U G48U U87C G120U	-2.16
A6U G23A G69C C115A U126A U131G	-6.34

Variant	polymerase ribozyme fitness (log ratio)
U7G C13U A84U U96A A121C	0.875
U7A C82A U116C C123A	-2.73
U7G C8A C56A C124U U129A	-0.245
U7A C101A	-1.43
U7A U21A G61C C114G	-5.5
A6G A46U U54G	-1.68
A6G C85U G113A	-2.51
U7C C8G C53G C101A	-0.517
U7G A41C C56U	-0.335
A6U U30C	-2.71
U7C C11A G45C G58A A121C	0.57
U7C G69C A90G G113C	-3.11
A6G U96A C102A U129A	-5.24
U7C A37U A41C G47U C53G G65A C85G A95C A111G A118U	-7.71
U7A C72G C88A C89G C102A G107A G113A	-6.44
A6G U14A C72U C88U G93A	-1.77
U7A C12G C40G U106C C114G	-5.02
A6U G10U C13A C22A C49U G63A	-5.88
A6U C53G C82A A83G	-0.829
A6G A121U U125G	-0.777
A6U G113C	-2.6
A6U G113A	-1.07
A6U G135U	-0.769
A6G U30C G63A A111U G127C	-5.37

Variant	polymerase ribozyme fitness (log ratio)
A6U A84C C86G G93U	-2.38
U7G C15A G58C	-0.977
A6G U14G G58A C70U	-1.12
U7A G61C	-1.93
U7A U21G G35A G52C C114U	-5.47
U7A C56A G65C G71A	-7.51
A6G C15U C49A C53A G71U U78A	-0.614
U7G A41U	-0.368
A6C G48U C53U U59G C64U A95G	-3.63
U7C C8G C12U G19C G63A A66U C115A G128C	-4.6
U7G C40U A41C G71U G113A	-2.26
A6U G110U	-1.36
A6G A18U C40G G42U U81C	-4.14
A6U A46U G110U	-2.57
U7A A50U G57A A83U	-1.44
U7A C8U G61U	0.322
U7G C22U G42A G47C G60C U87G U92C	-7.02
U7A C49U G52U G61A G120A	0.469
A6C U9G G69U A83G A91C G117U G135A	0.71
A6U C53A G63U A100U	-3.98
A6G C70A	-2.41
A6U C70A	-0.922
U7C G10A C11G G93U	-1.34
A6U A46U C115A	-2.18

Variant	polymerase ribozyme fitness (log ratio)
A6U C15G U59G	-2.42
U7A C12U G113C	-2.14
U7A C53U U59G G60U C72G	-0.651
A6G G48U U54A G127A	-2.59
U7A U21C G71U A90G	-0.779
U7C U21C A83G G120A	0.428
A6G C98U	-1.69
A6U G44A C56U	-0.291
U7G C11U A18C G45U C53A	-2.72
A6U C15A A37C C40G C80U U96G	-2.51
A6U G52U C53G G128C	-3.38
U7A G10U C64G G93A	-6.26
U7C C22A C82A C89U	-4.93
A6U C124U	1.56
U7A C70U	-0.0171
A6U A84U G110U	-1.45
A6U C28G G58A A100U	-3.49
U7G C11G C124U	1.49
A6C G61U U78C A100U G120A U131C	0.181
A6G C13G G51A C79G C88A G93C A108U C115U C124U	-7.39
A6U C11U C124G	1.11
U7A U9C C15A A41U C56U U92G	-1.45
A6U G60U C64U A91G C102G G110U	-7.78
U7A C72A	-0.427

Variant	polymerase ribozyme fitness (log ratio)
A6U C56G	-0.948
U7A C8A C13U C56U G61A C79U G120A	-4.91
A6C G61U U87A	-0.857
A6U C12U G110U	-1.97
U7G C8U C53A U59C C80U	-4.87
A6U C8A A37G G61U C98A	-3.75
A6G U7G A18C G48U C53A G63A C115A U133A	-1.29
U7G A105C G120U	-0.828
A6U C12A G61U	0.0933
A6G C22A G48U G110U	-6.03
U7A G10C U21A C56U	-2.02
U7C U21G U96G	-1.67
A6U G19C C82U C94A A111C	-4.5
A6G U30C C73U C124A	-1.64
A6U C15A C56A A75G A105C	-4.99
U7C A83G A84C	-1.08
A6G C34G C56A C70G G120U	-6.8
A6G C12U A43C U54C C56U A66G C72U C73A	-6.56
A6G G77U C82A C104U A121U U130A	1.36
U7A C34A G61U C97U	-2.06
A6C G71C	-1.18
A6U G47A C72G A75G	-2.41
U7G A16C	-1.37
